The values below come from publication PMC3360023, “Identification and Characterisation of a Novel Acylpeptide Hydrolase from Sulfolobus Solfataricus: Structural and Functional Insights” (PLoS ONE, 2012).

A word on the stoichiometry N: it is a count of units in the complex or per binding partner. As a reminder, the Km is the substrate concentration at which the rate is half of its maximum. As a reminder, the kcat is the number of substrate molecules converted per active site and unit of time at saturation. What is called kcat/Km is the second-order rate constant that governs catalysis at low substrate concentration.

The target of series [1] is APEH-3Ss, acylpeptide hydrolase from Sulfolobus solfataricus coded by the gene sso2693 (Sulfolobus solfataricus P2). Description: SEC; Superose 12 3.2/30; enzyme treated with 0.5 M GnHCl, column equilibrated with Tris-HCl 0.05 M pH 7.5 containing 0.5 M GnHCl. For orientation: SEC sorts molecules by how far they enter the pores of the column.
Series [2] shares this target. In words: SEC; gel filtration of the native purified enzyme on two columns (Superdex 200 HR 10/30; Superose 12 PC 3.2/30), calibrated with BioRad gel filtration standards.
Series [3] shares this target. Description: SEC; Superose 12 3.2/30; enzyme treated with 0.5 M GnHCl, then dialysed extensively against Tris-HCl 0.05 M pH 7.5 before gel filtration.
Substrate in series [4]: CC(=O)N[C@@H](Cc1ccccc1)C(=O)Nc1ccc([N+](=O)[O-])cc1
In words: purified protein. It is filed as biochemical, Saccharolobus solfataricus. The conditions noted are these: 25 mM Tris-HCl pH 7.5, 90°C.

Substrate in series [5]: CC(=O)N[C@@H](C)C(=O)Nc1ccc([N+](=O)[O-])cc1
In words: purified protein. It is filed as biochemical, Saccharolobus solfataricus. To be noted: 25 mM Tris-HCl pH 7.5, 90°C.

Substrate in series [6]: CC(=O)N[C@@H](CC(C)C)C(=O)Nc1ccc([N+](=O)[O-])cc1
In words: purified protein. To be noted: 25 mM Tris-HCl pH 7.5, 90°C. Format: biochemical, Saccharolobus solfataricus.

Series [7] deals with APEH-3Ss, acylpeptide hydrolase from Sulfolobus solfataricus coded by the gene sso2693 (Sulfolobus solfataricus P2).

Regarding “APEH-3Ss, acylpeptide hydrolase from Sulfolobus solfataricus coded by the gene sso2693 (enzyme)”, the stoichiometry N in series [1] was 2; in series [2], 3; in series [3], 3.

B1: APEH-3Ss (Saccharolobus solfataricus P2) (protein)
chain: MKPEDYYYSIKLVPEITIENGKLFHVETWIEEDKYKSSIYLNLKRITFQGNESSPKFNNDKLYFIRNEEAKSSLLEAQLYGEPKVIFTFSGKISKYEFHNKGILVIAEENTDKTLPFRAEKIKYRFDSRGLLRARQSLYLFDGKDLRRLVTGNFDVTDLATNGNRVVISATKDGDDYGLGNLYEVNIETGELNRITKEDGTVQAIAMNSEGKIAFLGHRKGLTPWASLEIMLPEEGKSYMCGKTCGNKVLTDLFDGVKDRIVFEKDLILSLGQEGGTSHIYQISDNKVDKVTSGNIMVRGFDYSNSELAYFYSTPEKPVILKYRDIEYDPNPNIKGYTPERITVNSNGVEVEGWSIIKDPNAPTILFIHGGPHMAYGYGYFIEFQFFVDNGFNVIYANPRGSQGYGEEFAKACVGDWGGKDFEDLMNFVNTVKERYSLKGKFGITGGSYGGFMTNWIVTKTSMFSAAISERSISNLVSMCGTSDIGFWFNAIESGIADPWSTEGIEKLMKMSPIYYVKNVKTPTMLIHGEEDYRCPIEQAEQFYVALKMQGVPTTLVRYQGDSHEHARRGKPKNMIDRLKTKLEWFSKYLL
notes: native enzyme purified from S. solfataricus P2 cells; full length 591 aa, not processed; N-terminus MKPEDYYYSI; 64 kDa by SDS-PAGE; homotrimer 192 kDa
B1: the Km in the series “purified protein [4]” amounted to 40 µM; in “purified protein [5]”, 800 ± 60 µM; in “purified protein [6]”, 600 ± 50 µM. For the same molecule, the kcat in “purified protein [4]” was found to be 0.08 ± 0.005 s⁻¹; in “purified protein [5]”, 14 ± 0.1 s⁻¹; in “purified protein [6]”, 18 ± 0.1 s⁻¹. Moreover, the kcat/Km was determined as 2000 ± 10 M⁻¹ s⁻¹ in the series “purified protein [4]”, 17500 ± 100 M⁻¹ s⁻¹ in the series “purified protein [5]” and 32700 ± 400 M⁻¹ s⁻¹ in the series “purified protein [6]”.

B2: SsCEI (Sulfolobus solfataricus chymotrypsin-elastase inhibitor) (natural protein)
chain: MNSESIYSMRVVSSAFKNEDFIPIKYTCDGQDLSPELEWDLVTNAKSYAIIVEDPDAPGGTFIHWVIYNITTNRLPEGVPRLYKSQYGVQGVNDFGNIGYNGPCPPKTHPPHRYYFYVYAIDTILLEIKNINADKLKSLMEGHGIERGFVMGKYKRK
In series [7], B2 displayed an IC50 of inhibition of APEH-3Ss activity on Ac-L-pNA (0.2 mM); protease pre-incubated with increasing SsCEI for 30 min at 80°C, Tris-HCl 50 mM pH 7.5 of 0.008 µM and an IC50 of inhibition of APEH-3Ss activity on Suc-GGF-pNA (0.2 mM); protease pre-incubated with increasing SsCEI for 30 min at 80°C, Tris-HCl 50 mM pH 7.5 of 0.02 µM.
